In paper PMC3744951 (Molecular Biology of the Cell, 2013):

Molecular target: GST-GSK3β fusion protein (human, UniProt P49841 1-420)
Assay: co-IP

GST-GSK3β fusion protein, sequence (P49841 whole entry, the tested form may be a part): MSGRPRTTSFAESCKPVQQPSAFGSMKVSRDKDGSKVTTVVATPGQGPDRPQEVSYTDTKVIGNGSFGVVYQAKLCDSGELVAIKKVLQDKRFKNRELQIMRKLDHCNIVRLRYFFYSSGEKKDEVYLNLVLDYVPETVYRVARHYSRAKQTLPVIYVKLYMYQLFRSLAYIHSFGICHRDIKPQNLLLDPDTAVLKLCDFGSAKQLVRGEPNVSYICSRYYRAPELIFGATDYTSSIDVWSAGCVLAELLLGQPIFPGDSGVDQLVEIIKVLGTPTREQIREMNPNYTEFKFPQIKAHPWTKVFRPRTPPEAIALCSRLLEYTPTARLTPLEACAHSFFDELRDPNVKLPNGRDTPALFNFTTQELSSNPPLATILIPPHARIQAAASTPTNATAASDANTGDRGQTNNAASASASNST

binding result: binds
B1: GST-FANCL fusion protein (natural protein, human, UniProt Q9NW38 1-375, looked up)
chain: MAVTEASLLRQCPLLLPQNRSKTVYEGFISAQGRDFHLRIVLPEDLQLKNARLLCSWQLRTILSGYHRIVQQRMQHSPDLMSFMMELKMLLEVALKNRQELYALPPPPQFYSSLIEEIGTLGWDKLVYADTCFSTIKLKAEDASGREHLITLKLKAKYPAESPDYFVDFPVPFCASWTPQSSLISIYSQFLAAIESLKAFWDVMDEIDEKTWVLEPEKPPRSATARRIALGNNVSINIEVDPRHPTMLPECFFLGADHVVKPLGIKLSRNIHLWDPENSVLQNLKDVLEIDFPARAILEKSDFTMDCGICYAYQLDGTIPDQVCDNSQCGQPFHQICLYEWLRGLLTSRQSFNIIFGECPYCSKPITLKMSGRKH
